From paper PMC6114939 come the findings set out here.

For test [1], the target named is p85α (UniProt P27986). Kind of test: His beads pull-down after kinase assay. Conditions: reference: WT His-PFKP with GST-EGFR; sites Y64.
In test [2] the target is p85α (UniProt P27986). Kind of test: co-immunoprecipitation, immunoblot. Conditions: sites Y64.

For “PFKP (platelet isoform of phosphofructokinase 1) (from UniProt Q01813) His-PFKP Y64F with GST-EGFR”, in the test with p85α [1], the “binding against the reference” value is on record as “lost”. Regarding “PFKP (platelet isoform of phosphofructokinase 1) (from UniProt Q01813) Y64F”, the “binding against the reference” value with p85α [2] (reference: wild-type tagged PFKP (presumed)) was “lost”. On to “PFKP (platelet isoform of phosphofructokinase 1) (from UniProt Q01813) Flag-rPFKP Y64F”, for which the “binding against the reference” value with p85α [2] (reference: WT Flag-rPFKP) is “lost”.
